Test results: the supplement of paper PMC7125110
± gives the standard error. For some assays here: Fewer inactive variants are shown than the library holds.

B1: glmS ribozyme (parent)
chain: AUAAAAGCGCCAGAACUACAGAAAUGUAGUUGACGAGGAGGAGGUUUAUCGAAUUUUCGGCGGAUGCCUCCAAA

How the values were obtained:
Details in all cases: with glucosamine-6-phosphate
[1] = variants of: B1; experiment: kcat; higher = faster cleavage; RNA array
Outline: (§1)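 Weighted Michaelis–Menten fits across concentrations supplied kcat and KM, based on kobs from one- or two-exponential decay fits to normalised per-tile medians. The data came from barcoded ribozyme variants transcribed in situ by E. coli RNA polymerase on sequenced MiSeq chips and tracked at 37 °C by a hybridised Cy3 probe. Glucosamine-6-phosphate (40 μM to 10 mM) in HEPES/KCl/Mg(OAc)2 buffer was flowed in.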

[2] = variants of: B1; experiment: KM; higher = weaker cofactor use; RNA array
Outline: as §1

[3] = variants of: B1; experiment: self-cleavage kobs at 160 uM GlcN6P; higher = faster cleavage; RNA array
Outline: as §1

[4] = variants of: B1; experiment: self-cleavage kobs at 640 uM GlcN6P; higher = faster cleavage; RNA array
Outline: as §1

[5] = variants of: B1; experiment: self-cleavage kobs at 2500 uM GlcN6P; higher = faster cleavage; RNA array
Outline: as §1

[6] = variants of: B1; experiment: self-cleavage kobs at 10000 uM GlcN6P; higher = faster cleavage; RNA array
Outline: as §1

[7] = variants of: B1; experiment: self-cleavage kobs at 40 uM GlcN6P; higher = faster cleavage; RNA array
Outline: as §1

Row | Variant | kcat [1] [s⁻¹] | KM [2] [µM] | self-cleavage kobs at 160 uM GlcN6P [3] [s⁻¹] | self-cleavage kobs at 640 uM GlcN6P [4] [s⁻¹] | self-cleavage kobs at 2500 uM GlcN6P [5] [s⁻¹] | self-cleavage kobs at 10000 uM GlcN6P [6] [s⁻¹] | self-cleavage kobs at 40 uM GlcN6P [7] [s⁻¹]
1 | U45C U54A | 0.00783 ± 0.0023 | 6680 ± 2400 | 0.000161 ± 3.3e-05 | 0.00072 ± 0.00011 | 0.00255 ± 0.00053 | 0.00436 ± 0.001 | 
2 | A12C U49G | 0.000332 ± 1.7e-05 | 1730 ± 210 |  | 8.81e-05 ± 2e-05 | 0.000216 ± 9.7e-05 | 0.000282 ± 4e-05 | 
3 | G40A C70U | 0.000518 ± 0.0001 | 165 ± 58 |  |  | 0.000417 ± 0.00011 | 0.000752 ± 0.00019 | 0.000102 ± 1.8e-05
4 | A15C C70G | 7.11e-05 ± 7.6e-06 |  | 3.9e-05 ± 9.7e-06 | 6.25e-05 ± 8.5e-06 | 8.13e-05 ± 1e-05 | 5.86e-05 ± 9.3e-06 | 
5 | A14G A23C A64U | 0.000287 ± 3.5e-05 | 1610 ± 460 |  | 8.79e-05 ± 2.3e-05 | 0.000151 ± 4.3e-05 | 0.00026 ± 5.2e-05 | 
6 | A14G U49G | 0.00278 ± 0.00095 |  |  | 0.000937 ± 0.00022 | 0.00109 ± 0.0003 | 0.00302 ± 0.00044 | 7.8e-05 ± 1.6e-05
7 | A12G U65G | 0.000107 ± 1.4e-05 | 2380 ± 960 |  | 3.32e-05 ± 9e-06 | 4.72e-05 ± 8.3e-06 | 8.79e-05 ± 7.1e-06 | 
8 | A15C U54A | 0.00654 ± 0.0017 | 1930 ± 730 | 0.000559 ± 0.00011 | 0.0012 ± 0.00025 | 0.00329 ± 0.00066 | 0.00638 ± 0.00097 | 0.000164 ± 2.4e-05
9 | A15C C16A G37U C70U C71G | 1.25e-05 ± 2.5e-06 |  |  |  |  |  | 
10 | G62C U69A | 1.17e-05 ± 3.8e-06 |  |  |  |  |  | 
11 | C50A C70A | 4.02e-05 ± 1.1e-05 |  | 3.47e-05 ± 1.5e-05 | 3.8e-05 ± 1.3e-05 | 5.27e-05 ± 1e-05 |  | 
12 | C16A C34U C71U | 1.28e-05 ± 4.6e-06 |  | < 1e-05 |  |  |  | 
13 | G44A U55A | 0.000528 ± 5e-05 | 2150 ± 420 | 5.44e-05 ± 2.2e-05 | 0.000113 ± 2.3e-05 | 0.000286 ± 6.8e-05 | 0.000437 ± 6.1e-05 | 
14 | U46G C68A | 3.1e-05 ± 2.2e-06 |  |  |  |  | 3.1e-05 ± 1.1e-05 | 
15 | G13U G29U C70A | 3.94e-05 ± 1.3e-05 |  |  |  | 4.33e-05 ± 1.9e-05 |  | 
16 | G38A U65A | < 1e-05 |  |  |  |  |  | 
17 | A42G A48C | 0.00074 ± 0.00011 | 4500 ± 1200 |  | 9.68e-05 ± 2.1e-05 | 0.000276 ± 8.7e-05 | 0.000506 ± 7.8e-05 | 
18 | A14G U45G | 0.0225 ± 0.0076 | 3450 ± 1400 | 0.000908 ± 0.00024 | 0.00617 ± 0.0025 | 0.00864 ± 0.003 | 0.0175 ± 0.0071 | 0.000286 ± 0.0001
